Experimental data reported in paper doi:10.1101/2021.10.13.464285.

Biological target: Respiratory syncytial virus fusion (F) glycoprotein (respiratory syncytial virus, strain rA2-mK+ (parent strain A2))
Assay: cryo-EM structure

Respiratory syncytial virus fusion (F) glycoprotein (natural protein)
stoichiometry N: 3
